Assay results: US20250269056A1 (published 2025)

Target: T1, epidermal growth factor receptor (EGFR) on EGFR-expressing cell lines (HeLa, HT-29, MRC-5, A549) (UniProt P00533 25-1210)
T1 construct: whole, on cells; EGFR expression in the cell lines was verified by Western blot; HEK293T served as the EGFR-negative line; also called EGF receptor
Test: fluorescence microscopy of Alexa Fluor 488-labelled phage on HeLa cells

B1: M13KO7 helper phage (no display) (other)
chain: AETVESCLAKPHTENSFTNVWKDDKTLDRYANYEGCLWNATGVVVCTGDETQCYGTWVPIGLAIPENEGGGSEGGGSEGGGSEGGGTKPPEYGDTPIPGYTYINPLDGTYPPGTEQNPANPNPSLEESQPLNTFMFQNNRFRNRQGALTVYTGTVTQGTDPVKTYYQYTPVSSKAMYDAYWNGKFRDCAFHSGFNEDPFVCEYQGQSSDLPQPPVNAGGGSGGGSGGGSEGGGSEGGGSEGGGSEGGGSGGGSGSGDFDYEKMANANKGAMTENADENALQSDAKGKLDSVATDYGAAIDGFIGDVSGLANGNGATGDFAGSNSQMAQVGDGDNSPLMNNFRQYLPSLPQSVECRPFVFSAGKPYEFSIDCDKINLFRGVFAFLLYVATFMYVFSTFANILRNKES
notes: mature; Whole phage particle without a ligand, labelled with Alexa Fluor 488 in the localisation experiment; also called EGF- phage; non-displaying phage
Q: Does B1 bind?
A: no binding (tested: 5×10^7 virions/mL)
